Assay [1] concerns the target purified recombinant eEF1A1 (OriGene), biotinylated (UniProt P68104). The assay can be described thus: BLI; Octet Red; biotinylated eEF1A1 immobilised on streptavidin-coated biosensors, 90 nM RTp51/p66 heterodimer; kinetic buffer 1 mM phosphate, 15 mM NaCl, 0.002% Tween 20, 0.1 mg/ml gelatin.
Assay [2] has the same target. The assay is described as follows: BLI. Conditions: biotinylated eEF1A immobilized on a streptavidin-coated biosensor, 90 nM RT heterodimer, E300R in both RTp51 and RTp66 subunits.
The target of assay [3] is HaloTag-eEF1A (UniProt P68104). The assay can be described thus: FRET or BRET; NanoBRET in HEK293T cells cotransfected with 5 ng RTp66-NanoLuc (donor) and 500 ng HaloTag-eEF1A (acceptor), HaloTag NanoBRET 618 Ligand; BRET ratio of the RSV P-NanoLuc control subtracted, normalized to WT RT.
Assay [4] addresses HaloTag-eEF1A (UniProt P68104). The assay can be described thus: NanoBRET. Conditions: HEK293T cells cotransfected; n = 3; parent: est. 100; read off a plot.
Assay [5] deals with HIV-1 reverse transcriptase (Human immunodeficiency virus 1) (UniProt O93215). Conditions: cited from earlier work.

purified recombinant eEF1A1 (OriGene), biotinylated, sequence (P68104 whole entry): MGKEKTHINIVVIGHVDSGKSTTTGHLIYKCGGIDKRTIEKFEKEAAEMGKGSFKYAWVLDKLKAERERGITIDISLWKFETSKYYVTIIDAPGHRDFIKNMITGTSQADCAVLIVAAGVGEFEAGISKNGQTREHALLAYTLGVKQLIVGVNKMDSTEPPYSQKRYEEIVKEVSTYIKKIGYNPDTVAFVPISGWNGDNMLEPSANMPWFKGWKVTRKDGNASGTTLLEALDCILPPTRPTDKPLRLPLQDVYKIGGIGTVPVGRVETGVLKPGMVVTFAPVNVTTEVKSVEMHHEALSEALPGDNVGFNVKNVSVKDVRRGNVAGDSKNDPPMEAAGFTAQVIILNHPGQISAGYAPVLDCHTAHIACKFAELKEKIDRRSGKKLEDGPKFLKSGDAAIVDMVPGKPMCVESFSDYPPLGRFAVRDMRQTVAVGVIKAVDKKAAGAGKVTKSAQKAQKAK
HaloTag-eEF1A, sequence (P68104 whole entry): as above
eEF1A, sequence (P68104 2-462): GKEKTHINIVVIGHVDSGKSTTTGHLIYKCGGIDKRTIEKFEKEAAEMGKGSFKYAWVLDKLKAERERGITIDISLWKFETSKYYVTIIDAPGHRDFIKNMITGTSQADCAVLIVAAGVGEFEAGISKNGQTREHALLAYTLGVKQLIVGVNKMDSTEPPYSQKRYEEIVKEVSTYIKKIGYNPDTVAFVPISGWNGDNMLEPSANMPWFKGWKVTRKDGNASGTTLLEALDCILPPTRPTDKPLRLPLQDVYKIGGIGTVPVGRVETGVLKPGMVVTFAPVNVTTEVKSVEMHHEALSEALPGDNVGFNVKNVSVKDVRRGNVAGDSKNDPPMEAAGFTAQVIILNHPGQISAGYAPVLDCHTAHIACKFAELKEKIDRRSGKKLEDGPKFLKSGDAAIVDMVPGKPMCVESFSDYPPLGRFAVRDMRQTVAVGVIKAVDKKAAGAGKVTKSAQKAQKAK

Consider “6xHis-tagged E300R mutant RTp51/p66 heterodimer purified from E. coli (complex)”, for which, in assay [1], the fold change of koff against the WT heterodimer is 3 fold and the fold weaker binding affinity (KD) than the WT heterodimer came to 3 fold.

With “6xHis-tagged WT RTp51/p66 heterodimer purified from E. coli (from UniProt P04585) E300R”, the Kd in assay [2] (parent: 3.4787 ± 0.079) stood at 10.3 nM. In assay [2] (parent: 4.75E-4 ± 2.5E-5), the koff stood at 0.00139 s⁻¹. Further, the on-rate (kon) in assay [2] (parent: 136350 ± 4150) was 135000 1/MS.

Turning to HIV-1 RTp66-NanoLuc, D250R (enzyme), in the assay with HaloTag-eEF1A [3], the percent reduction of the BRET ratio against WT RT is 33%.

Turning to HIV-1 RTp66-NanoLuc, E297R (enzyme), the percent reduction of the BRET ratio against WT RT with HaloTag-eEF1A [3] was found to be 20%.

As to HIV-1 RTp66-NanoLuc, E298R (enzyme), in the assay with HaloTag-eEF1A [3], the percent reduction of the BRET ratio against WT RT came out at 40%.

Take HIV-1 RTp66-NanoLuc, E300R (enzyme): the percent reduction of the BRET ratio against WT RT in the assay with HaloTag-eEF1A [3] worked out at 70%.

As to HIV-1 RTp66-NanoLuc, wild type L303A, in the assay with HaloTag-eEF1A [4], the percent of parent stood at 43 % WT.

Turning to eEF1A (from UniProt P68104), in assay [5], the Kd is 3.5 nM.

Source of the values: article PMC5874916.
